Data from FireProtDB (doi:10.1021/bi010565n).

B1: Guanyl-specific ribonuclease T1, P00651 (parent)
chain: MMYSKLLTLTTLLLPTALALPSLVERACDYTCGSNCYSSSDVSTAQAAGYQLHEDGETVGSNSYPHKYNNYEGFDFSVSSPYYEWPILSSGDVYSGGSPGADRVVFNENNQLAGVITHTGASGNNFVECT

Variants of: B1
Conditions: Aspergillus oryzae (strain ATCC 42149 / RIB 40); pH 7; Thermal; CD; MOPS 30 mM; structure 1RN1; whole UniProt chain shown

Variant	Tm	change of melting temperature, mutant - wild type (higher = more stable)
V104S	34.6 °C	-16.6 °C
V104A	43.3 °C	-7.9 °C
V115S	29.6 °C	-21.6 °C
V115C	46.3 °C	-4.9 °C
V115T	38 °C	-13.2 °C

Same assay, conditions: Aspergillus oryzae (strain ATCC 42149 / RIB 40); pH 7; 25 °C; Urea; CD; MOPS 30 mM; structure 1RN1; whole UniProt chain shown

Variant	ddG of mutation (higher = less stable)
V104C	3.67 kcal/mol
V104A	4.08 kcal/mol
V115S	4.87 kcal/mol
V115C	3.54 kcal/mol
V115T	3.07 kcal/mol

Same assay, conditions: Aspergillus oryzae (strain ATCC 42149 / RIB 40); pH 7; 25 °C; Thermal; DSC; MOPS 30 mM; reversible: yes(0.98); structure 1RN1; whole UniProt chain shown

Variant	ddG of mutation (higher = less stable)	heat capacity change of unfolding
V104T	3.1 kcal/mol	1.29 kcal/mol/K
V42A	2.19 kcal/mol	1.29 kcal/mol/K

Same assay, conditions: Aspergillus oryzae (strain ATCC 42149 / RIB 40); pH 7; 25 °C; Urea; CD; MOPS 30 mM; reversible: yes(0.98); structure 1RN1; whole UniProt chain shown

Variant	ddG of mutation (higher = less stable)
V104T	4.08 kcal/mol

Same assay, conditions: Aspergillus oryzae (strain ATCC 42149 / RIB 40); pH 7; Thermal; CD; MOPS 30 mM; reversible: yes(0.98); structure 1RN1; whole UniProt chain shown

Variant	Tm	change of melting temperature, mutant - wild type (higher = more stable)
V104T	41.4 °C	-9.8 °C
V42A	43 °C	-8.2 °C

Same assay, conditions: Aspergillus oryzae (strain ATCC 42149 / RIB 40); pH 7; Thermal; DSC; MOPS 30 mM; reversible: yes(0.98); structure 1RN1; whole UniProt chain shown

Variant	Tm	change of melting temperature, mutant - wild type (higher = more stable)
V104T	40.2 °C	-11.3 °C
V42A	44.5 °C	-7 °C

Same assay, conditions: Aspergillus oryzae (strain ATCC 42149 / RIB 40); pH 7; 25 °C; Thermal; DSC; MOPS 30 mM; reversible: yes(1.04); structure 1RN1; whole UniProt chain shown

Variant	ddG of mutation (higher = less stable)	heat capacity change of unfolding
V42T	4.1 kcal/mol	1.29 kcal/mol/K

Same assay, conditions: Aspergillus oryzae (strain ATCC 42149 / RIB 40); pH 7; 25 °C; Urea; CD; MOPS 30 mM; reversible: yes(1.04); structure 1RN1; whole UniProt chain shown

Variant	ddG of mutation (higher = less stable)
V42T	3.2 kcal/mol

Same assay, conditions: Aspergillus oryzae (strain ATCC 42149 / RIB 40); pH 7; Thermal; DSC; MOPS 30 mM; reversible: yes(1.04); structure 1RN1; whole UniProt chain shown

Variant	Tm	change of melting temperature, mutant - wild type (higher = more stable)
V42T	42.1 °C	-9.4 °C

Same assay, conditions: Aspergillus oryzae (strain ATCC 42149 / RIB 40); pH 7; 25 °C; Thermal; DSC; MOPS 30 mM; reversible: yes(0.18); structure 1RN1; whole UniProt chain shown

Variant	ddG of mutation (higher = less stable)	heat capacity change of unfolding
V42C	4.68 kcal/mol	1.29 kcal/mol/K

Same assay, conditions: Aspergillus oryzae (strain ATCC 42149 / RIB 40); pH 7; 25 °C; Urea; CD; MOPS 30 mM; reversible: yes(0.18); structure 1RN1; whole UniProt chain shown

Variant	ddG of mutation (higher = less stable)
V42C	5.3 kcal/mol

Same assay, conditions: Aspergillus oryzae (strain ATCC 42149 / RIB 40); pH 7; Thermal; CD; MOPS 30 mM; reversible: yes(0.18); structure 1RN1; whole UniProt chain shown

Variant	Tm	change of melting temperature, mutant - wild type (higher = more stable)
V42C	41.6 °C	-9.6 °C

Same assay, conditions: Aspergillus oryzae (strain ATCC 42149 / RIB 40); pH 7; Thermal; DSC; MOPS 30 mM; reversible: yes(0.18); structure 1RN1; whole UniProt chain shown

Variant	Tm	change of melting temperature, mutant - wild type (higher = more stable)
V42C	42.6 °C	-8.9 °C

Same assay, conditions: Aspergillus oryzae (strain ATCC 42149 / RIB 40); pH 7; 25 °C; Thermal; DSC; MOPS 30 mM; reversible: yes(1.03); structure 1RN1; whole UniProt chain shown

Variant	ddG of mutation (higher = less stable)	heat capacity change of unfolding
V42S	4.71 kcal/mol	1.29 kcal/mol/K

Same assay, conditions: Aspergillus oryzae (strain ATCC 42149 / RIB 40); pH 7; 25 °C; Urea; CD; MOPS 30 mM; reversible: yes(1.03); structure 1RN1; whole UniProt chain shown

Variant	ddG of mutation (higher = less stable)
V42S	4.66 kcal/mol

Same assay, conditions: Aspergillus oryzae (strain ATCC 42149 / RIB 40); pH 7; Thermal; CD; MOPS 30 mM; reversible: yes(1.03); structure 1RN1; whole UniProt chain shown

Variant	Tm	change of melting temperature, mutant - wild type (higher = more stable)
V42S	35.6 °C	-15.6 °C

Same assay, conditions: Aspergillus oryzae (strain ATCC 42149 / RIB 40); pH 7; Thermal; DSC; MOPS 30 mM; reversible: yes(1.03); structure 1RN1; whole UniProt chain shown

Variant	Tm	change of melting temperature, mutant - wild type (higher = more stable)
V42S	36.9 °C	-14.6 °C
